Laboratory results as given in PMC5480393 (Cell, 2017).
Read-outs that look alike come from different tables or passages of the source.

Legend:
crystal structure [1] = target: the molecule itself; test: crystal structure
crystal structure [2] = target: the molecule itself; test: crystal structure; remark: listed apart in the source

Protein	binding result (crystal structure [1])	binding result (crystal structure [2])
VR3 (red abalone VERL repeat 3 without the interdomain linker) (domain or fragment) DWDVYCSQDESIPAKFISRLVTSKDQALEKTEINCSNGLVPITQEFGINMMLIQYTRNELLDSPGMCVFWGPYSVPKNDTVVLYTVTARLKWSEGPPTNLSIQCYMPKSPVAPK	binds	–
mMBP-VR3 (mammalianized maltose-binding protein fusion of VERL repeat 3) (domain or fragment) DWDVYCSQDESIPAKFISRLVTSKDQALEKTEINCSNGLVPITQEFGINMMLIQYTRNELLDSPGMCVFWGPYSVPKNDTVVLYTVTARLKWSEGPPTNLSIQCYMPKSPVAPK	–	binds
